Test results published in patent US20220281976A1 (Alector, published 2022).

T1: mouse CD33 Fc fusion protein (mouse, UniProt Q63994 18-240, limits assumed)
T1 construct: also called mCD33-Fc
T1 sequence: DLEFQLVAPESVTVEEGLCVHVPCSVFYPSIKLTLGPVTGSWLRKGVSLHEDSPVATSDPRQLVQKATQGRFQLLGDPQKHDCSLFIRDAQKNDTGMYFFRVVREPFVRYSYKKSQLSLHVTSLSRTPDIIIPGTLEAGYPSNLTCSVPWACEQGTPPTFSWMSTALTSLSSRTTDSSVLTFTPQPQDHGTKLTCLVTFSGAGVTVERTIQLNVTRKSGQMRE

B1: C-16 (antibody, V domains shown)
VH: EVQLVESGGGLVQPGGSLRLSCAASGFTFSSYWMSWVRQAPGKGLEWVANINQDGSEKYYVDSVKGRFTISRDNAKNSLYLQMNSLRAEDTAVYYCAREGSDRHPFDYWGQGTLVTVSS
VL: DIQMTQSPSSLSASVGDRVTITCRASQSISSYLNWYQQKPGKAPKLLIYAASSLQSGVPSRFSGSGSGTDFTLTISSLQPEDFATYYCQQAYLVPLTFGGGTKVEIK
notes: human IgG1
B2: C-28 (antibody, V domains shown)
VH: EVQLVESGGGLVQPGGSLRLSCAASGFTFSSYWMSWVRQAPGKGLEWVANINQDGSEKYYVDSVKGRFTISRDNAKNSLYLQMNSLRAEDTAVYYCAREGRRTMNAFDIWGQGTMVTVSS
VL: DIQMTQSPSSLSASVGDRVTITCRASQSISSYLNWYQQKPGKAPKLLIYGASSLQSGVPSRFSGSGSGTDFTLTISSLQPEDFATYYCQQGYDVPITFGGGTKVEIK
notes: human IgG1
B3: C-25 (antibody, V domains shown)
VH: EVQLVESGGGLVQPGGSLRLSCAASGFTFSSYWMSWVRQAPGKGLEWVANIKSDGSEKYYVDSVKGRFTISRDNAKNSLYLQMNSLRAEDTAVYYCAREGFRDGINWFDPWGQGTLVTVSS
VL: DIQMTQSPSSLSASVGDRVTITCRASQSISRYLNWYQQKPGKAPKLLIYAASSLQSGVPSRFSGSGSGTDFTLTISSLQPEDFATYYCQQQFLTPITFGGGTKVEIK
notes: human IgG1
B4: C-33 (antibody, V domains shown)
VH: EVQLVESGGGLVQPGGSLRLSCAASGFTFSSYWMSWVRQAPGKGLEWVANIKSDGSEKYYVDSVKGRFTISRDNAKNSLYLQMNSLRAEDTAVYYCAREGRPRLGYAAFDIWGQGTMVTVSS
VL: DIQMTQSPSSLSASVGDRVTITCRASQSISSYLNWYQQKPGKAPKLLIYAASSLQSGVPSRFSGSGSGTDFTLTISSLQPEDFATYYCQQQYDLPITFGGGTKVEIK
notes: human IgG1
B5: C-23 (antibody, V domains shown)
VH: QVQLQESGPGLVKPSETLSLTCAVSGYSISSGYYWGWIRQPPGKGLEWIGTIYHSGSTYYNPSLKSRVTISVDTSKNQFSLKLSSVTAADTAVYYCAREVGVVGALPYFDYWGQGTLVTVSS
VL: DIQMTQSPSSLSASVGDRVTITCRASQSISSYLNWYQQKPGKAPKLLIYGASSLQSGVPSRFSGSGSGTDFTLTISSLQPEDFATYYCQQASSSPPTFGGGTKVEIK
notes: human IgG1
B6: C-32 (antibody, V domains shown)
VH: EVQLVESGGGLVQPGGSLRLSCAASGFTFSSYWMSWVRQAPGKGLEWVANIKSDGSEKYYVDSVKGRFTISRDNAKNSLYLQMNSLRAEDTAVYYCARGPSEAAAAKDFDLWGRGTLVTVSS
VL: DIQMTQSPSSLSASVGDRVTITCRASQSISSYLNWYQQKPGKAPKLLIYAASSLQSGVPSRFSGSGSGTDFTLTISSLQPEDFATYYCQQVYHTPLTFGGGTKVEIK
notes: human IgG1
B7: C-20 (antibody, V domains shown)
VH: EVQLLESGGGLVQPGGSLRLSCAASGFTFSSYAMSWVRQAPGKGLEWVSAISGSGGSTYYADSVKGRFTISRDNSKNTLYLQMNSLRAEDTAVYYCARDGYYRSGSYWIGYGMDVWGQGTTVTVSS
VL: EIVLTQSPGTLSLSPGERATLSCRASQSVSSSFLAWYQQKPGQAPRLLIYGASSRATGIPDRFSGSGSGTDFTLTISRLEPEDFAVYYCQQVDSYPPTFGGGTKVEIK
notes: human IgG1
B8: C-22 (antibody, V domains shown)
VH: QVQLQESGPGLVKPSETLSLTCAVSGYSISSGYYWGWIRQPPGKGLEWIGSIYHSGNTYYNPSLKSRVTISVDTSKNQFSLKLSSVTAADTAVYYCARDGRYSSSGELYYGMDVWGQGTTVTVSS
VL: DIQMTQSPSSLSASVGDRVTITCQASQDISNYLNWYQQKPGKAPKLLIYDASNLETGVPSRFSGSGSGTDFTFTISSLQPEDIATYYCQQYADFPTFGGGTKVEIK
notes: human IgG1
B9: C-15 (antibody, V domains shown)
VH: QVQLVESGGGVVQPGRSLRLSCAASGFTFSSYGMHWVRQAPGKGLEWVAVIWYDGSNKYYADSVKGRFTISRDNSKNTLYLQMNSLRAEDTAVYYCAKGVGYDTGTDMDVWGKGTTVTVSS
VL: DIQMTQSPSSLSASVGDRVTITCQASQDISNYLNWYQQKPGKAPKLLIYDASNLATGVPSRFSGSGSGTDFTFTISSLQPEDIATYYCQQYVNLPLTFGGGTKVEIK
notes: human IgG1
B10: C-30 (antibody, V domains shown)
VH: QVQLVQSGAEVKKPGASVKVSCKASGYTFTSYYMHWVRQAPGQGLEWMGVINPSGGSTSYAQKFQGRVTMTRDTSTSTVYMELSSLRSEDTAVYYCAREEAVAADLGVDVWGQGTTVTVSS
VL: not shown
B11: C-26 (antibody, V domains shown)
VH: QLQLQESGPGLVKPSETLSLTCTVSGGSISSNSYYWGWIRQPPGKGLEWIGSIYYSGSTYYNPSLKSRVTISVDTSKNQFSLKLSSVTAADTAVYYCARSPVYYDSSGYFQYYGMDVWGQGTTVTVSS
VL: EIVLTQSPATLSLSPGERATLSCRASQSVSSYLAWYQQKPGQAPRLLIYDASKRATGIPARFSGSGSGTDFTLTISSLEPEDFAVYYCQQSIVWPPFTFGGGTKVEIK
notes: human IgG1

Legend:
[1] = biological target: T1, mouse CD33 Fc fusion protein; test: ForteBio BLI or MSD-SET
human CD33 [2] = biological target: T2, human CD33 (human, UniProt P20138 18-364); test: flow cytometry, human primary macrophages;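 also: binding of CD33 antibodies at 10 µg/ml to human primary macrophages, 1 h on ice, detected with PE-labelled secondary antibody by flow cytometry, reported as MFI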
T2 construct: CD33 on human primary dendritic cells, macrophages, monocytes and T cells and on CHO cells expressing recombinant human CD33; also called Siglec-3; hCD33

[3] = biological target: T3, human monomeric His tagged CD33 protein (human, UniProt P20138 18-259); test: ForteBio BLI or MSD-SET, IgG, monomeric antigen;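 also: BLI: antibodies captured on AHQ sensors, 100 nM antigen association 5 min, dissociation 5 min, 1:1 fit. MSD-SET: antigen fixed at 50 pM, antibody titrated, quadratic fit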
T3 construct: also called hCD33-His
Method: The binding affinity of each anti-CD33 antibody was determined by measuring their KD by ForteBio or MSD-SET. […] Briefly, ForteBio affinity measurements were performed by loading IgGs on-line onto AHQ sensors. Sensors were equilibrated off-line in assay buffer for 30 min and then monitored on-line for 60 seconds for baseline establishment. Sensors with loaded IgGs were exposed to 100 nM antigen for 5 minutes, then transferred to assay buffer for 5 min for off-rate measurement. Kinetics were analyzed using the 1:1 binding model.
Solution equilibrium titrations (SET) were performed in PBS+0.1% IgG-Free BSA (PBSF) with antigen held constant at 50 pM and incubated with 3-to 5-fold serial dilutions of antibody starting at 10 nM. Antibodies (20 nM in PBS) were coated onto standard bind MSD-ECL plates overnight at 4° C. or at room temperature for 30 min. Plates were then blocked for 30 min with shaking at 700 rpm, followed by three washes with wash buffer (PBSF+0.05% Tween 20). SET samples were applied and incubated on the plates for 150s with shaking at 700 rpm followed by one wash. Antigen captured on a plate was detected with 250 ng/mL sulfotag-labeled streptavidin in PBSF by incubation on the plate for 3 min. The plates were washed three times with wash buffer and then read on the MSD Sector Imager 2400 instrument using 1× Read Buffer T with surfactant. The percent free antigen was plotted as a function of titrated antibody in Prism and fit to a quadratic equation to extract the KD. To improve throughput, liquid handling robots were used throughout MSD-SET experiments, including SET sample preparation.

[4] = biological target: T4, human CD33 Fc fusion protein (human, UniProt P20138 18-259); test: RBC adhesion to plate-bound CD33-Fc; antibody 0.5 ug/ml;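 also: Plate-coated CD33-Fc preincubated 1 h with antibody, then red blood cells added for 1 h at room temperature, adherent cells lysed and quantified via peroxidase activity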
T4 construct: also called hCD33-Fc; human CD33/Fc chimera (R&D Systems)

[5] = biological target: T4, human CD33 Fc fusion protein; test: ForteBio BLI or MSD-SET, IgG, avid;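 also: Anti-CD33 IgG affinity by BLI, IgG captured on AHQ sensors with antigen in solution and a one-to-one kinetic fit, or by MSD solution equilibrium titration with quadratic fit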
human CD33 [6] = biological target: T2, human CD33; test: flow cytometry, human primary T cells;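 also: binding of anti-CD33 antibodies at 10 ug/ml to human primary T cells, 1 h on ice, detected with PE-labelled secondary antibody, read as flow cytometry MFI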
Method: (§1) Initial characterization of CD33 antibodies involved determining their ability to bind CD33 expressed on a CHO cell line, on human primary monocytes, human primary macrophages, human primary dendritic cells, and on human primary T cells. Cells were harvested, plated at 10⁶/ml in a 96 well plate, and incubated in 100 ul PBS containing 2% FBS, 2 mM EDTA and 10 ug/ml Mab and Fc blocking reagent for 1 hour in ice. Cells were washed twice and incubated in 100 ul PBS containing 2% FBS, 2 mM EDTA and 5 ug/ml PE-conjugated secondary antibody for 30 minutes on ice. Cells were washed twice in cold PBS and analyze by flow cytometry on a BD FACS Canto. Data analysis and calculation of MFI values was performed with FlowJo (TreeStar) software version 10.0.7.

human CD33 [7] = biological target: T2, human CD33; test: flow cytometry, human primary monocytes; parameters: reference not given here;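 also: binding of anti-CD33 antibodies at 10 ug/ml to human primary monocytes, 1 h on ice, detected by PE-labelled secondary antibody, flow cytometry readout as mean fluorescence intensity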
[8] = biological target: T4, human CD33 Fc fusion protein; test: RBC adhesion to plate-bound CD33-Fc; antibody 1.0 ug/ml;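 also: red blood cells adhering to plate-coated CD33-Fc after 1 h antibody pretreatment, then 1 h at room temperature, bound cells read as peroxidase activity after lysis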
Method: Briefly, 5 ug/ml CD33-Fc was coated overnight at RT in 96 well Immunolon plates, then washed with PBS, blocked for one hour with binding buffer (PBS containing %0.25 BSA 1 mM CaCl₂). CD33 antibodies (0.5 ug/ml or 1.0 ug/ml) or Fabs (25 ug/ml) were bound for one hour at RT with gentle rocking. After removal of unbound antibody, red blood cells were added to each well at a concentration of 3.0×10⁶ cells per ml and incubated at RT for one hour. Unbound RBCs were then carefully washed off 3× with PBS, and water was added to each well for hypotonic lysis of bound RBCs. The plate was transferred to −80° C. for 10 minutes, followed by 37° C. for 15 minutes. Bound RBCs were detected by peroxidase activity, followed by 2N sulfuric acid to stop the reaction.

human CD33 [9] = biological target: T2, human CD33; test: flow cytometry, human primary dendritic cells;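 also: binding of anti-CD33 antibodies (10 ug/ml, 1 h on ice) to human primary dendritic cells, detected with a PE-labelled secondary antibody, reported as flow cytometry MFI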
Method: as §1

human CD33 [10] = biological target: T2, human CD33; test: cell-based or functional assay

T2 sequence (P20138 18-364): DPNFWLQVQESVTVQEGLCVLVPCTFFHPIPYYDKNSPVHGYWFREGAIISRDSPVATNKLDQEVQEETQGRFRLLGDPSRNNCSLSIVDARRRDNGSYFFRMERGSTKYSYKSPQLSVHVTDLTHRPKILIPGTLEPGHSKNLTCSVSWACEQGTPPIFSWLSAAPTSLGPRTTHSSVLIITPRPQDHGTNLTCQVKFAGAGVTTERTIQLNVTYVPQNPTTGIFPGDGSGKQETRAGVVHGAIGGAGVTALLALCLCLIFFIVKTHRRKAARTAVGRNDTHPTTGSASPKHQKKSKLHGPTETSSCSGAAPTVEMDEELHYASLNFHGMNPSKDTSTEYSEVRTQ
T3 sequence (P20138 18-259 limits assumed): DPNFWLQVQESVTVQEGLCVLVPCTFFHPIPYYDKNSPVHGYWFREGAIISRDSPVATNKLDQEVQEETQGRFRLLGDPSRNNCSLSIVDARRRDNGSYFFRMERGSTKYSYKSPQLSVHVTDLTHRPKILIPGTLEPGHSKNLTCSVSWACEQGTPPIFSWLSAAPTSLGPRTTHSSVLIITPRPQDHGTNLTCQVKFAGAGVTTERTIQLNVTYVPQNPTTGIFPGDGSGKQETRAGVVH
T4 sequence (P20138 18-259 limits assumed): as above

Binder	binding result [1]	Macrophage MFI (human CD33 [2])	Kd [3] [nM]	Percent RBC Binding to CD33 [4] [%]	Kd [5] [nM]	T cell MFI (human CD33 [6])	Monocyte MFI (human CD33 [7])	Percent RBC Binding to CD33 [8] [%]	DC MFI (human CD33 [9])	Percent CD33 Surface Expression, DC % CD33 (human CD33 [10]) [%]	Percent CD33 Surface Expression, Macrophage % CD33 (human CD33 [10]) [%]	Percent CD33 Surface Expression, Monocyte % CD33 (human CD33 [10]) [%]
B1	no binding (tested: 100 nM)	711	5.87	17.2	1.35	229	133	7.69	1750	19.5	62.6	42.4
B2	no binding (tested: 100 nM)	811	4	14	1.02	402	143	9.65	1780	14.8	40.2	29.2
B3	no binding (tested: 100 nM)	877	8.78	11.3	1.85	187	139	10.1	1790	22.3	41.9	35.4
B4	no binding (tested: 100 nM)	753	3.91	9.36	0.954	228	133	6.32	1590	18.4	43.1	51.4
B5	no binding (tested: 100 nM)	771	21.1	13.8	3.39	242	128	8.42	1050	69.5		71.3
B6	no binding (tested: 100 nM)	855	7.82	12.5	1.63	248	133	7.86	1460	17.3	43.2	33.5
B7	no binding (tested: 100 nM)	730	0.958	12.5	0.304	205	196	9.4	1700	30.2	54.3	53.9
B8	no binding (tested: 100 nM)	912	1.97	11.5	0.445	207	188	9.95	1650	17	44	40.7
B9	no binding (tested: 100 nM)	883	6.55	15.3	1.82	206	191	8.77	2020	17	42	32.6
B10	no binding (tested: 100 nM)	1060	4.12	14.2	0.985	240	169	8.9	1660	21	41.3	43
B11	no binding (tested: 100 nM)	926	1.57	19.2	0.388	198	188	15.2	1960	18.8	45.1	33
